Laboratory results: the Human Domainome abundance scans (Beltran et al. 2025)

B1: Friend leukemia integration 1 transcription factor, residues 116 to 197; numbered along this chain, Q01543 (parent)
chain: NMTTNERRVIVPADPTLWTQEHVRQWLEWAIKEYSLMEIDTSFFQNMDGKELCKMNKEDFLRATTLYNTEVLLSHLSYLRES

Variants of: B1
Assay: abundance fitness (aPCA) (normalised: wild type 0, dead -1); higher = more abundant; growth selection in yeast, the domain comes from the species named
Conditions: Homo sapiens

Abundance fitness, by site and new letter:
E33: Y -0.278; R -0.06; L -0.981; Q -0.055; I -0.437; F -0.803; W -0.382; P -0.973; S -0.238; N -0.354; H -0.204; D -0.117; K -0.021; G -0.8; T -0.243; V -0.435
L17: S 0.008; G 0.09; D 0.224; T -0.011; R -0.042; A 0.032; N -0.289; V 0.018; M -0.328; K -0.085; Y -0.096; E 0.087; I 0.024; Q 0.037; F -0.132; W -0.203; H 0.081
I31: T -0.023; F -0.549; M 0.08; K -0.059; G -0.384; L -0.305; V -0.001; P -1.22; Q -0.075; W -0.48; S 0.041; R 0.063; H -0.034
P15: I -0.028; F -0.851; D -0.489; G -1.07; V -0.056; T -0.42; E -0.854; K -1.09; S -0.565; Q -0.543; Y -0.512; W -0.942; H -0.892; R -0.92; C -0.398
W26: N -0.732; T -1.01; E -0.921; Q -0.818; C -0.626; S -0.402; P -1.04; M -0.445; K -0.813
Y34: E -0.181; A -0.274; L -0.227; H -0.106; K -0.032; G -0.215; F 0.109
A30: F -0.287; R -0.21; P -1.07; I -0.061; N -0.136; W -0.554; K -0.161; M -0.057; T -0.058; G -0.253; E -0.071; C -0.058; D -0.709; V -0.092; S 0.031; L -0.186; H -0.162; Q 0.18
W18: M -0.616; Q -0.891; D -0.803; F -0.719; L -0.868; Y -0.759; S -0.981; K -1.18; R -0.563; G -0.458; A -0.879; P -0.753
L27: T -0.383; I -0.132; R -0.876; F 0.079; C -0.384; E -0.857; K -0.708; V 0.035; D -0.532; W -0.856; H -0.463; Y -0.834; S -0.438; A -0.229; G -0.284
W29: N 0.432; D 0.189; C -0.041; T 0.13; R 0.003; A 0.101; L -0.116; P -1.01; I -0.029; S 0.112; Y -0.058; K 0.005; G 0.168; H -0.033; E 0.212; V -0.14; Q 0.084
T16: M -0.022; S -0.087; Q -0.306; N -0.22; Y -0.166; W -0.021; P -0.277; C -0.357; K -0.057; F 0; G -0.142; L -0.108; R -0.139; D -0.082; I -0.036; V -0.052; A 0.086; E -0.159
A13: Q 0.106; V 0.017; D 0.121; N 0.183; P 0.162; W 0.023; G 0.123; T 0.051; H -0.179; Y -0.072
